# T1: G9a and GLP (Homo sapiens, UniProt Q96KQ7+Q9H9B1)
# T1 sequence (Q96KQ7 2-1210 limits assumed): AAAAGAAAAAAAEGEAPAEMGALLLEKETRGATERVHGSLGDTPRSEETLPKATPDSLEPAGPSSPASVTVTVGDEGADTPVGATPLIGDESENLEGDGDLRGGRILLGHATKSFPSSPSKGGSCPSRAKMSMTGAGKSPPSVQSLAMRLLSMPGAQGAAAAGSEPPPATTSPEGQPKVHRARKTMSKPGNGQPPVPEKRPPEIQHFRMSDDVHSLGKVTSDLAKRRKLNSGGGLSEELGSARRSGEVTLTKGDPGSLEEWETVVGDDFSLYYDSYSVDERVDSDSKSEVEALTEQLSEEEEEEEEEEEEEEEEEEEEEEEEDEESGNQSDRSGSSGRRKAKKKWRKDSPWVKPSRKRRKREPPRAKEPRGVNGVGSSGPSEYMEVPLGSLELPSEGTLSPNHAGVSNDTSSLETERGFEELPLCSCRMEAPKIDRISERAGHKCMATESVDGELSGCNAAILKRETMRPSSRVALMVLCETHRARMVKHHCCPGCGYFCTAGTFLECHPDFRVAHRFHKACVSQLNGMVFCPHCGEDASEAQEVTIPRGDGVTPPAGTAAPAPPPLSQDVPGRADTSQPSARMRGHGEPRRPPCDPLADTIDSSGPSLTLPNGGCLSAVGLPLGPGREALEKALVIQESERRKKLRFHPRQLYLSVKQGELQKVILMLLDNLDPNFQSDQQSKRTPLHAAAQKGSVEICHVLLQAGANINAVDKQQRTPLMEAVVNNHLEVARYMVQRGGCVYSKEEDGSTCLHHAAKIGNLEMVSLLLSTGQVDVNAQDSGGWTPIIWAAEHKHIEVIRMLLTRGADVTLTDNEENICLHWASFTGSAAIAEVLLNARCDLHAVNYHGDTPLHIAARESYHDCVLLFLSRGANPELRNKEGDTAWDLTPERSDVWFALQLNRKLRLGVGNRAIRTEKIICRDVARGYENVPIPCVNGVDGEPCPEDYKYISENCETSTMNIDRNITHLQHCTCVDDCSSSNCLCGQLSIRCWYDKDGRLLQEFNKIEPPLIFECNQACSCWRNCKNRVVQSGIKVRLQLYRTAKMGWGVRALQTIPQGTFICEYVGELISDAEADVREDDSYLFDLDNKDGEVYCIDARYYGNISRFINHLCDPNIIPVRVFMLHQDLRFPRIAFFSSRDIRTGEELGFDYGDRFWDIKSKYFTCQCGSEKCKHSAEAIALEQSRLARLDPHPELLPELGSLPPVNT
# T1 sequence (Q9H9B1 2-1298 limits assumed): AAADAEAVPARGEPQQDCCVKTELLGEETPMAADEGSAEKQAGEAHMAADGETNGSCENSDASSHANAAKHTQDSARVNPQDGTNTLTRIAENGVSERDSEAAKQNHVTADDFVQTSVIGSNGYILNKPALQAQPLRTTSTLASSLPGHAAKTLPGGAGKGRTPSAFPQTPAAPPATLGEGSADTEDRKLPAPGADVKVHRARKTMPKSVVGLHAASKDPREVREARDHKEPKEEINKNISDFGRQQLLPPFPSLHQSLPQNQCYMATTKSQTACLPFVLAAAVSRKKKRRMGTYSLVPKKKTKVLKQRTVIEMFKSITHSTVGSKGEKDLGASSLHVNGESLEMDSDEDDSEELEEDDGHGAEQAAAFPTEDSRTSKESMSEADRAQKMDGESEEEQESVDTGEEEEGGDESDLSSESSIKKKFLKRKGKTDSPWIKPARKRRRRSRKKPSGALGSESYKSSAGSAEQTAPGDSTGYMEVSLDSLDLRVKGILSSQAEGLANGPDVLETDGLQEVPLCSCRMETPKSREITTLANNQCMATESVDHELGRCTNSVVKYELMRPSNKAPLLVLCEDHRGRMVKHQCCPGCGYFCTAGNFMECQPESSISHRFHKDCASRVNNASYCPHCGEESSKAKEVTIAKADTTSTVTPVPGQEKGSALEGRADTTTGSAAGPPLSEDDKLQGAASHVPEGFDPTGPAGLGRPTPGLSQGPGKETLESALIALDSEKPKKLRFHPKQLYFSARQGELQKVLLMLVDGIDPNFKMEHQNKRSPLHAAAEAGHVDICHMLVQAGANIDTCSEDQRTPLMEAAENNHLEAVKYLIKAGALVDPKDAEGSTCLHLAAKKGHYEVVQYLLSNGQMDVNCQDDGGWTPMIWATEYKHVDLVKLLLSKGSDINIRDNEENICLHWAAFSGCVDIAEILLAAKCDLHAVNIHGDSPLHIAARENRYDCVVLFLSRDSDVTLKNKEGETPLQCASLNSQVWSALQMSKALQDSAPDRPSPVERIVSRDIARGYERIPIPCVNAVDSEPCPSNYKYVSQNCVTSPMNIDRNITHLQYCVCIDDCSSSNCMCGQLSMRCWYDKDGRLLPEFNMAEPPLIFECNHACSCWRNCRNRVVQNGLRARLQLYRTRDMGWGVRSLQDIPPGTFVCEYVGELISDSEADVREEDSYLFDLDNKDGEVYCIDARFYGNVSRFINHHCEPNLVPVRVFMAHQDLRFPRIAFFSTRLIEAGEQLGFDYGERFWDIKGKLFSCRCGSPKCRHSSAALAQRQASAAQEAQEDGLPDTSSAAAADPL
# B1: TOP1 (protein, UniProt P11387 2-765, looked up)
# DNA topoisomerase 1: SGDHLHNDSQIEADFRLNDSHKHKDKHKDREHRHKEHKKEKDREKSKHSNSEHKDSEKKHKEKEKTKHKDGSSEKHKDKHKDRDKEKRKEEKVRASGDAKIKKEKENGFSSPPQIKDEPEDDGYFVPPKEDIKPLKRPRDEDDADYKPKKIKTEDTKKEKKRKLEEEEDGKLKKPKNKDKDKKVPEPDNKKKKPKKEEEQKWKWWEEERYPEGIKWKFLEHKGPVFAPPYEPLPENVKFYYDGKVMKLSPKAEEVATFFAKMLDHEYTTKEIFRKNFFKDWRKEMTNEEKNIITNLSKCDFTQMSQYFKAQTEARKQMSKEEKLKIKEENEKLLKEYGFCIMDNHKERIANFKIEPPGLFRGRGNHPKMGMLKRRIMPEDIIINCSKDAKVPSPPPGHKWKEVRHDNKVTWLVSWTENIQGSIKYIMLNPSSRIKGEKDWQKYETARRLKKCVDKIRNQYREDWKSKEMKVRQRAVALYFIDKLALRAGNEKEEGETADTVGCCSLRVEHINLHPELDGQEYVVEFDFLGKDSIRYYNKVPVEKRVFKNLQLFMENKQPEDDLFDRLNTGILNKHLQDLMEGLTAKVFRTYNASITLQQQLKELTAPDENIPAKILSYNRANRAVAILCNHQRAPPKTFEKSMMNLQTKIDAKKEQLADARRDLKSAKADAKVMKDAKTKKVVESKKKAVQRLEEQLMKLEVQATDREENKQIALGTSKLNYLDPRITVAWCKKWGVPIEKIYNKTQREKFAWAIDMADEDYEF
# B2: GNB1L (protein, UniProt Q9BYB4 1-327, looked up)
# Guanine nucleotide-binding …: MTAPCPPPPPDPQFVLRGTQSPVHALHFCEGAQAQGRPLLFSGSQSGLVHIWSLQTRRAVTTLDGHGGQCVTWLQTLPQGRQLLSQGRDLKLCLWDLAEGRSAVVDSVCLESVGFCRSSILAGGQPRWTLAVPGRGSDEVQILEMPSKTSVCALKPKADAKLGMPMCLRLWQADCSSRPLLLAGYEDGSVVLWDVSEQKVCSRIACHEEPVMDLDFDSQKARGISGSAGKALAVWSLDWQQALQVRGTHELTNPGIAEVTIRPDRKILATAGWDHRIRVFHWRTMQPLAVLAFHSAAVQCVAFTADGLLAAGSKDQRISLWSLYPRA
# B3: CPSF2 (protein, UniProt Q9P2I0 1-782, looked up)
# Cleavage and polyadenylation …: MTSIIKLTTLSGVQEESALCYLLQVDEFRFLLDCGWDEHFSMDIIDSLRKHVHQIDAVLLSHPDPLHLGALPYAVGKLGLNCAIYATIPVYKMGQMFMYDLYQSRHNTEDFTLFTLDDVDAAFDKIQQLKFSQIVNLKGKGHGLSITPLPAGHMIGGTIWKIVKDGEEEIVYAVDFNHKREIHLNGCSLEMLSRPSLLITDSFNATYVQPRRKQRDEQLLTNVLETLRGDGNVLIAVDTAGRVLELAQLLDQIWRTKDAGLGVYSLALLNNVSYNVVEFSKSQVEWMSDKLMRCFEDKRNNPFQFRHLSLCHGLSDLARVPSPKVVLASQPDLECGFSRDLFIQWCQDPKNSIILTYRTTPGTLARFLIDNPSEKITEIELRKRVKLEGKELEEYLEKEKLKKEAAKKLEQSKEADIDSSDESDIEEDIDQPSAHKTKHDLMMKGEGSRKGSFFKQAKKSYPMFPAPEERIKWDEYGEIIKPEDFLVPELQATEEEKSKLESGLTNGDEPMDQDLSDVPTKCISTTESIEIKARVTYIDYEGRSDGDSIKKIINQMKPRQLIIVHGPPEASQDLAECCRAFGGKDIKVYMPKLHETVDATSETHIYQVRLKDSLVSSLQFCKAKDAELAWIDGVLDMRVSKVDTGVILEEGELKDDGEDSEMQVEAPSDSSVIAQQKAMKSLFGDDEKETGEESEIIPTLEPLPPHEVPGHQSVFMNEPRLSDFKQVLLREGIQAEFVGGVLVCNNQVAVRRTETGRIGLEGCLCQDFYRIRDLLYEQYAIV
# B4: FUS (protein, UniProt P35637 1-526, looked up)
# RNA-binding protein FUS: MASNDYTQQATQSYGAYPTQPGQGYSQQSSQPYGQQSYSGYSQSTDTSGYGQSSYSSYGQSQNTGYGTQSTPQGYGSTGGYGSSQSSQSSYGQQSSYPGYGQQPAPSSTSGSYGSSSQSSSYGQPQSGSYSQQPSYGGQQQSYGQQQSYNPPQGYGQQNQYNSSSGGGGGGGGGGNYGQDQSSMSSGGGSGGGYGNQDQSGGGGSGGYGQQDRGGRGRGGSGGGGGGGGGGYNRSSGGYEPRGRGGGRGGRGGMGGSDRGGFNKFGGPRDQGSRHDSEQDNSDNNTIFVQGLGENVTIESVADYFKQIGIIKTNKKTGQPMINLYTDRETGKLKGEATVSFDDPPSAKAAIDWFDGKEFSGNPIKVSFATRRADFNRGGGNGRGGRGRGGPMGRGGYGGGGSGGGGRGGFPSGGGGGGGQQRAGDWKCPNPTCENMNFSWRNECNQCKAPKPDGPGGGPGGSHMGGNYGDDRRGGRGGYDRGGYRGRGGDRGGFRGGRGGGDRGGFGPGKMDSRGEHRQDRRERPY
# Molecular target: T1, G9a and GLP
# Assay: Triple SILAC pull-down after UNC0638 treatment of 293T cells, DMSO/UNC0638 ratio of protein captured by 3×MBT;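 further: mass spectrometry (Q-Exactive) SILAC quantitation, DMSO/UNC0638 ratio computed after subtracting 3×MBTD355N mutant pull-down background, only proteins with at least twofold 3×MBT over mutant signal considered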
# Format: cell-based
# Set-up: endogenous in cells; host or cells: HEK 293T
# Settings: SILAC ratio DMSO/UNC0638 of protein pulled down with 3xMBT; UNC0638 in heavy SILAC media
row,Relative to UNC0638 UNC Heavy,Molecule
1,0.16 log base 2,B1
2,0.25 log base 2,B2
3,0.15 log base 2,B3
4,0.05 log base 2,B4

# Same assay, conditions: SILAC ratio DMSO/UNC0638 of protein pulled down with 3xMBT; UNC0638 in light SILAC media
row,Relative to UNC0638 UNC Light,Molecule
1,0.22 log base 2,B1
2,0.12 log base 2,B2
3,3.16 log base 2,B3
4,0.34 log base 2,B4

# Same assay, conditions: average of UNC Light and UNC Heavy experiments
row,Relative to UNC0638 Average,Molecule
1,0.19 log base 2,B1
2,0.19 log base 2,B2
3,1.65 log base 2,B3
4,0.19 log base 2,B4

# Same assay, conditions: reduced association with 3xMBT after UNC0638 treatment
row,Candidate G9a/GLP target,Molecule
1,✓,B3

# Test system: 3×MBT domain of L3MBTL1
# Assay: Triple SILAC pull-down, 3xMBT/3xMBTD355N ratio (cytoplasmic, nuclear and chromatin fractions of 293T cells);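 further: proteins quantified with MaxQuant, requiring at least two unique peptides and quantification in both label directions, normalized to the mean of proteins from a digested loading control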
# Format: binding, human
# Settings: SILAC ratio, pull-down 3xMBT vs 3xMBTD355N; experiment with UNC0638 in heavy SILAC media
row,Molecule,3xMBT/D355N UNC Heavy
1,B1,3.47 log base 2
2,B2,2.24 log base 2
3,B3,1.85 log base 2
4,B4,2.17 log base 2

# Same assay, conditions: SILAC ratio, pull-down 3xMBT vs 3xMBTD355N; experiment with UNC0638 in light SILAC media
row,Molecule,3xMBT/D355N UNC Light
1,B1,3.87 log base 2
2,B2,2.60 log base 2
3,B3,4.20 log base 2
4,B4,2.10 log base 2

# From patent publication US20140274782A1, “AFFINITY REAGENTS AND METHODS FOR DETECTION, PURIFICATION, AND PROTEOMIC ANALYSIS OF METHYLATED PROTEINS” (The Board of Trustees of the Leland Stanford Junior …, priority 2013, published 2014)
